What was measured:
[1] = molecular target: T1, ICU11, recombinant, GST- or MBP-tagged (pull-down) (Arabidopsis thaliana, UniProt Q3ED68 1-397); assay: pull-down; purified proteins mixed in GST-tag lysis buffer (20 mM Tris-HCl pH 7.5, 150 mM NaCl, 1 mM DTT) at 4 °C for 1 h, then GST or MBP beads; immunoblot with GST, MBP or His antibody; settings: both partners purified
T1 construct: ICU11, Arabidopsis thaliana, AT1G22950; full length in pGEX6P-1 (GST) or pET-30a (MBP); source: E. coli BL21, purified (GST beads or MBP beads); not shown: GST or MBP (both forms were made)
T1 sequence (looked up): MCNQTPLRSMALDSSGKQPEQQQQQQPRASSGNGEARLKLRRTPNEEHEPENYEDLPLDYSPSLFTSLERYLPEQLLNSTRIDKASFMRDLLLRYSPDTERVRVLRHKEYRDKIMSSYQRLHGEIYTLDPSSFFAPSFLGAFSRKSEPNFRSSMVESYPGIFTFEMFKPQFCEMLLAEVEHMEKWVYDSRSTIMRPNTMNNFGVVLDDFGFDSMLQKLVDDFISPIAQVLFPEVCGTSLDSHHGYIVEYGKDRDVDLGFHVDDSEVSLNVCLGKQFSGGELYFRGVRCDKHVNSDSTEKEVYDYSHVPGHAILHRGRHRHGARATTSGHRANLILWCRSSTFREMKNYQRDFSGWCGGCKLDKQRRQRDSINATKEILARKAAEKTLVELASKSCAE

[2] = molecular target: T2, ICU11-GST, recombinant (gel filtration) (Arabidopsis thaliana, UniProt Q3ED68 1-397); assay: SEC; purified proteins mixed in equivalent molar amounts, 4 °C overnight, Superose 6 10/300GL; fractions detected by immunoblotting (GST, FLAG, MBP, HIS); settings: both partners purified
T2 construct: ICU11, Arabidopsis thaliana, AT1G22950; full length in pGEX6P-1; May be the same construct as m20 in some pull-downs; source: E. coli BL21, purified (GST beads)
T2 sequence (looked up): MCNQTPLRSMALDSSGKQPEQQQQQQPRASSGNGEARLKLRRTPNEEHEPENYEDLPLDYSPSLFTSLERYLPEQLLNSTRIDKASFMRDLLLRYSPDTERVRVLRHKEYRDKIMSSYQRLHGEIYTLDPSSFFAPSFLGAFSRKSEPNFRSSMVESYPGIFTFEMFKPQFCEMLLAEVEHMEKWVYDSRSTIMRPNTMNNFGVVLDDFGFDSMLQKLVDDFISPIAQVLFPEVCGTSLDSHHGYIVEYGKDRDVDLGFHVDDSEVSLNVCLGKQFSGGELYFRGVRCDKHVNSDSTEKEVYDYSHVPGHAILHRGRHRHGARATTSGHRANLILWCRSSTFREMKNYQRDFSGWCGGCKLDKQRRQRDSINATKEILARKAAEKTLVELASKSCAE

TRB1 = molecular target: T3, TRB1 (Arabidopsis thaliana, UniProt Q8VWK4 1-300); assay: EMSA; EMSA: 10 mM Tris-HCl pH 7.5, 50 mM NaCl, 1 mM EDTA, 5% glycerol, 1 mM DTT, 25 C, 30 min, 20 ng DNA + 1 ug protein; ITC: 20 mM Tris-HCl pH 7.5, 150 mM NaCl, 25 C, 5 uM protein, 100 uM DNA; settings: protein: recombinant; tags: His; label: Cy5 at 5' of strand 1; blunt
T3 sequence: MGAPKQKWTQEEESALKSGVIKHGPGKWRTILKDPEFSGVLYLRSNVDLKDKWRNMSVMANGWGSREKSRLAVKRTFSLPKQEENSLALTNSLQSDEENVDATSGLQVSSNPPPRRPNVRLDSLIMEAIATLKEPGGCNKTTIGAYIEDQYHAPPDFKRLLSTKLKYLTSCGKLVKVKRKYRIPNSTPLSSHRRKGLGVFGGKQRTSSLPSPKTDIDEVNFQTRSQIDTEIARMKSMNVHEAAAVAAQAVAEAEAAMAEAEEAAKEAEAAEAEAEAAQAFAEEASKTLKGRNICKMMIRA

TRB1-MybΔ-GH1Δ = molecular target: T4, TRB1-MybΔ-GH1Δ (Arabidopsis thaliana, UniProt Q8VWK4 61-300, del1-60;del114-185); assay: as above; settings: protein: recombinant; label: Cy5 at 5' of strand 1; blunt
T4 sequence: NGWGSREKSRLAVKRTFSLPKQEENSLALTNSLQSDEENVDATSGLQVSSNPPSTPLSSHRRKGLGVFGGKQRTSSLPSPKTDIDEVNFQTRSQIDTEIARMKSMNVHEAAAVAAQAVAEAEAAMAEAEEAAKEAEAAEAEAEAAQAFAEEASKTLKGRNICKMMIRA

TRB1-1 = molecular target: T5, TRB1-1 (Arabidopsis thaliana, UniProt Q8VWK4 1-185); assay: as above; settings: protein: recombinant; tags: His; label: Cy5 at 5' of strand 1; blunt
T5 sequence: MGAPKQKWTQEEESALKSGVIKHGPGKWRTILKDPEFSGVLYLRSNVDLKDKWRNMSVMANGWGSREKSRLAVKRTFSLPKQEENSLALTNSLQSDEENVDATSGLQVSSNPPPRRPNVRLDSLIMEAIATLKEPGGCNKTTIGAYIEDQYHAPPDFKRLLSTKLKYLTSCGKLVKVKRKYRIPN

TRB2 = molecular target: T6, TRB2 (Arabidopsis thaliana, UniProt Q9FJW5 1-299); assay: as above; settings: protein: recombinant; tags: His; label: Cy5 at 5' of strand 1; blunt
T6 sequence: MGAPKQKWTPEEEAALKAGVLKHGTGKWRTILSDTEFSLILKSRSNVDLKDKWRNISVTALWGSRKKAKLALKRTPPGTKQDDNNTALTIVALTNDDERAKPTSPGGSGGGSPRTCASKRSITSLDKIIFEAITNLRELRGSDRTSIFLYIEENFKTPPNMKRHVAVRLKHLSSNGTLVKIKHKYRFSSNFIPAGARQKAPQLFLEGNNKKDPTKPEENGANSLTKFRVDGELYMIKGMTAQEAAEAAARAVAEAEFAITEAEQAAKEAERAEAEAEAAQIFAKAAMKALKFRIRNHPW

TRB1-GH1Δ = molecular target: T7, TRB1-GH1Δ (Arabidopsis thaliana, UniProt Q8VWK4 1-300, del114-185); assay: as above; settings: protein: recombinant; label: Cy5 at 5' of strand 1; blunt
T7 sequence: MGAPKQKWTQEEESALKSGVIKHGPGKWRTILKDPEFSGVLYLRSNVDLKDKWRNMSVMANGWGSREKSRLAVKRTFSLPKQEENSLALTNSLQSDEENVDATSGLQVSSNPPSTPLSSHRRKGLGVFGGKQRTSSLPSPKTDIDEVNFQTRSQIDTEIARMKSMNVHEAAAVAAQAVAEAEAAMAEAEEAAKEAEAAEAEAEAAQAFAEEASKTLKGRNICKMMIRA

TRB3 = molecular target: T8, TRB3 (Arabidopsis thaliana, UniProt Q9M2X3 1-295); assay: as above; settings: protein: recombinant; tags: His; label: Cy5 at 5' of strand 1; blunt
T8 sequence: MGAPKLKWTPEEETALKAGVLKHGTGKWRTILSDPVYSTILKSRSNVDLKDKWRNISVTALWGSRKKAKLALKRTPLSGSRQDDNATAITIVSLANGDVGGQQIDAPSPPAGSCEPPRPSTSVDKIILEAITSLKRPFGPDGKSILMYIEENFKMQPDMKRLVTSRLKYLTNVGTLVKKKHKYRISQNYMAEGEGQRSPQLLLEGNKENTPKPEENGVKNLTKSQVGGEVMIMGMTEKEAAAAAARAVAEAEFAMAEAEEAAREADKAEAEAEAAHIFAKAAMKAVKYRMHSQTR

TRB1;HTH1 [3] = molecular target: T9, TRB1;HTH1 (Arabidopsis thaliana;Arabidopsis …, UniProt Q8VWK4;Q9SHL4 1-300;1-275, |); assay: EMSA; larger complex, enhanced vs TRB1 alone; EMSA: 10 mM Tris-HCl pH 7.5, 50 mM NaCl, 1 mM EDTA, 5% glycerol, 1 mM DTT, 25 C, 30 min, 20 ng DNA + 1 ug protein; ITC: 20 mM Tris-HCl pH 7.5, 150 mM NaCl, 25 C, 5 uM protein, 100 uM DNA; settings: protein: recombinant;recombinant; tags: His;His or MBP (EMSA construct not specified); label: Cy5 at 5' of strand 1; blunt
T9 sequence 1: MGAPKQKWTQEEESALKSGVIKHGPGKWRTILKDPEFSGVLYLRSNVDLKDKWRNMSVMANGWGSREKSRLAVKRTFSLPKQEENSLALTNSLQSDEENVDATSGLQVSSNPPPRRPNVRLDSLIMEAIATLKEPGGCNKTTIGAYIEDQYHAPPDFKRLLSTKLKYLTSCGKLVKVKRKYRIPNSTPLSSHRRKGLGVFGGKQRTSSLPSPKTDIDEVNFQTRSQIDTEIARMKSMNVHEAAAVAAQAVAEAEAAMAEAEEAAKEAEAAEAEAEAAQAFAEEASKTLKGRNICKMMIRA
T9 sequence 2: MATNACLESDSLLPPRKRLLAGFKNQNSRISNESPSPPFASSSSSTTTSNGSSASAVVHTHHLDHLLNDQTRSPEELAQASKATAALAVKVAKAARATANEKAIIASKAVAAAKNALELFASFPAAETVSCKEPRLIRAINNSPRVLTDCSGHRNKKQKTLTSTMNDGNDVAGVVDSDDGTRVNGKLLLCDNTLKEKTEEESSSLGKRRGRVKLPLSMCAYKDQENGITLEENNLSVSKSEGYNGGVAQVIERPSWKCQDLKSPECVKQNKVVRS

TRB1;NAC050-N [4] = molecular target: T10, TRB1;NAC050-N (Arabidopsis thaliana;Arabidopsis …, UniProt Q8VWK4;Q9SQX9 1-300;1-184, |); assay: as above; settings: protein: recombinant;recombinant; tags: His;MBP; label: Cy5 at 5' of strand 1; blunt
T10 sequence 1: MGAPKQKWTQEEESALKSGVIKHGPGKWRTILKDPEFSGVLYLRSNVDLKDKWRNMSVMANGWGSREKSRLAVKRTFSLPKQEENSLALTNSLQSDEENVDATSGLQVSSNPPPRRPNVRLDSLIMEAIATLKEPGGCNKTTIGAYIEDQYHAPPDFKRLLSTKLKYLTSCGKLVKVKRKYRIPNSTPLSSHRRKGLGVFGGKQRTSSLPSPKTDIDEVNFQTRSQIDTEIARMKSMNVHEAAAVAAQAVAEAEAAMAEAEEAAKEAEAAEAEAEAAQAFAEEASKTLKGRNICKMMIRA
T10 sequence 2: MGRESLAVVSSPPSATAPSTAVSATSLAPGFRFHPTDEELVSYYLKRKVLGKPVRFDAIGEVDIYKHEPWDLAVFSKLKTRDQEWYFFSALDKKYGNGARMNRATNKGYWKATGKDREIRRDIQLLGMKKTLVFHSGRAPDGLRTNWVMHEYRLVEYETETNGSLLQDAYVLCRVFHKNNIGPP

TRB1;HTH1 [5] = molecular target: T9, TRB1;HTH1; assay: ITC; enhanced vs TRB1 alone; Kd only in figure; EMSA: 10 mM Tris-HCl pH 7.5, 50 mM NaCl, 1 mM EDTA, 5% glycerol, 1 mM DTT, 25 C, 30 min, 20 ng DNA + 1 ug protein; ITC: 20 mM Tris-HCl pH 7.5, 150 mM NaCl, 25 C, 5 uM protein, 100 uM DNA; settings: protein: recombinant;recombinant; tags: His;His or MBP (EMSA construct not specified); blunt
TRB1;NAC050-N [6] = molecular target: T10, TRB1;NAC050-N; assay: as above; settings: protein: recombinant;recombinant; tags: His;MBP; blunt

B1: TRB1-His, recombinant (natural protein, Arabidopsis thaliana, UniProt Q8VWK4 1-300, looked up)
chain: MGAPKQKWTQEEESALKSGVIKHGPGKWRTILKDPEFSGVLYLRSNVDLKDKWRNMSVMANGWGSREKSRLAVKRTFSLPKQEENSLALTNSLQSDEENVDATSGLQVSSNPPPRRPNVRLDSLIMEAIATLKEPGGCNKTTIGAYIEDQYHAPPDFKRLLSTKLKYLTSCGKLVKVKRKYRIPNSTPLSSHRRKGLGVFGGKQRTSSLPSPKTDIDEVNFQTRSQIDTEIARMKSMNVHEAAAVAAQAVAEAEAAMAEAEEAAKEAEAAEAEAEAAQAFAEEASKTLKGRNICKMMIRA
notes: TRB1, Arabidopsis thaliana, AT1G49950; full length in the vector pSMT3; pSMT3 is recalled to add an N-terminal His-SUMO; source: E. coli BL21, purified (His beads)
Q: Which results are given for B1?
A: binding result [1]: binds; binding result [2]: binds

B2: Probe 1 (P1) (dsDNA)
DNA 1: ATCGAATTTAGGGCAAAATG
DNA 2: CATTTTGCCCTAAATTCGAT
Q: Does B2 bind (TRB1)?
A: binds

Q: Does B2 bind (TRB1-MybΔ-GH1Δ)?
A: no binding

Q: Does B2 bind (TRB1-1)?
A: binds

Q: Does B2 bind (TRB2)?
A: binds

Q: Does B2 bind (TRB1-GH1Δ)?
A: binds

Q: Does B2 bind (TRB3)?
A: binds

Q: Does B2 bind (TRB1;HTH1 [3])?
A: binds

Q: Does B2 bind (TRB1;NAC050-N [4])?
A: binds

B3: Probe 1 for ITC (dsDNA)
DNA 1: ATCGAATTTAGGGCAAAATG
DNA 2: CATTTTGCCCTAAATTCGAT
Q: What does the source list for B3?
A: binding result (TRB1;HTH1 [5]): binds; binding result (TRB1;NAC050-N [6]): binds

— paper PMC12713088, “Arabidopsis TRB Proteins Form Two Closely Related Complexes to Mediate H3K4me3 Demethylation and Transcriptional Repression” (Advanced Science, 2025)
